According to article PMC12689202:

What follows are substances tested against C3b (biotinylated) (human) (UniProt P01024) (assay: BLI; Octet RH384 (Sartorius); biotinylated C3b immobilized onto streptavidin biosensors; mini-CR1, FH or FHL-1 in the fluid phase).

Kd [nM]	Substance
583	factor H (from UniProt P08603 19-1231) (natural protein)
1170	factor H-like protein 1 (from UniProt P08603-2 19-449) (natural protein)
21	mini-CR1 (soluble fragment of complement receptor 1, complement control proteins 8-10) (domain or fragment)
